The text below walks through data of patent US20210115143A1 (R PHARM OVERSEAS, published 2021).

Several values for one entry are separate records, joined by “and”; a condition that tells them apart may be missing. Equal values may be shown once.

Assay [1] deals with hPD-L1 as used in the binding and blocking tests of Example 4 (human, UniProt Q9NZQ7 19-238, limits assumed). In words: competition with PD-1 for PD-L1, scFv-Fc (FIG. 3).
For assay [2], the target named is human PD-L1 on primary human cells in the dendritic cell / CD4+ T cell mixed lymphocyte reaction (human, UniProt Q9NZQ7 19-290). In words: cell-based or functional assay.
Chain of human PD-L1 on primary human cells in the dendritic cell / CD4+ T cell mixed lymphocyte reaction (Q9NZQ7 19-290): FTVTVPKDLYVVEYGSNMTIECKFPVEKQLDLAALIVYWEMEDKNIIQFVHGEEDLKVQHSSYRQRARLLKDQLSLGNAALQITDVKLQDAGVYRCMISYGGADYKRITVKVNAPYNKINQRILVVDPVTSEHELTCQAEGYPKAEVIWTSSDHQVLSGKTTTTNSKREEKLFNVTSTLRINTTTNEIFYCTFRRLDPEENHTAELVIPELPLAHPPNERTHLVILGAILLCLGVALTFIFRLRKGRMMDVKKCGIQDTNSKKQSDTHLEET

Chain of hPD-L1 as used in the binding and blocking tests of Example 4 (Q9NZQ7 19-238 limits assumed): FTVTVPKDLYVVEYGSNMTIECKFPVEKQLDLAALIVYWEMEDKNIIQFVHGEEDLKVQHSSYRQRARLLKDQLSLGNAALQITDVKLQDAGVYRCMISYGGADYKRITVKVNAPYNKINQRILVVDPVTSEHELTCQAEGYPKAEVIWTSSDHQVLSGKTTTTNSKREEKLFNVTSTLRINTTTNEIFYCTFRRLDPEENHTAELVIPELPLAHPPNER

B1: B60-55 anti-hPD-L1 scFv fused to IgG1-Fc (affinity matured) (Fc fusion)
scFv: QVQLVQSGAEVKKPASSVKVSCTASGGSFSTYAISWVRQAPGQGLEWMGGIIPIFGTTKYAQRFQGRVTITADESTTTAYMELSSLISDDTALYYCTTSRGFNYGWFDYWGQGTLVTVSSGGGGSGGGGSGGGGSEIVMTQSPATLSLSPGERATLSCRASQSVGIHLAWYQQKLGQAPRLLIYGASSRATGIPDRFSGSGSGTDFTLTISRLEPEDFAVYYCQQYGSLPRTFGQGTKVEIK
notes: not shown: human immunoglobulin gamma1 (IgG1) constant region, UniProt P01857, residues 104-330 (IgG1-Fc)
One may read the IC50 as the concentration that inhibits the measured activity by half. Higher therefore signals weaker potency in that assay. Molecule B1 yielded a half-inhibitory concentration (IC50) in assay [1] of 1.14 µg/mL.

B2: BII61-62 anti-hPD-L1 scFv fused to IgG1-Fc (affinity matured) (Fc fusion)
scFv: QVQLQQSGPGLVKPSQTLSLTCAISGDSVSSNSASWNWIRQSPSRGLEWLGRTYYRSKWYDDYAVSVKGRISINPDTSKNQFSLQLNSVTPEDTAVYYCARSQGRYFVNYGMDVWGQGTTVTVSSGGGGSGGGGSGGGGSDIRLTQSPSSLSASVGDRITITCRASQSISSYLNWYQQKPGKAPKLLVYGASSLQSGVPSRFSGSGSGTDFTLTISSLQPEDVATYYCQQSYFTPRGITFGPGTKVDIK
notes: as for B1
With B2, the half-maximal inhibitory concentration (IC50) in assay [1] came out at 0.837 µg/mL.

B3: BII61-62 mAb (anti-hPD-L1, human IgG1, kappa) (antibody, V domains shown)
VH: QVQLQQSGPGLVKPSQTLSLTCAISGDSVSSNSASWNWIRQSPSRGLEWLGRTYYRSKWYDDYAVSVKGRISINPDTSKNQFSLQLNSVTPEDTAVYYCARSQGRYFVNYGMDVWGQGTTVTVSS
VL: DIRLTQSPSSLSASVGDRITITCRASQSISSYLNWYQQKPGKAPKLLVYGASSLQSGVPSRFSGSGSGTDFTLTISSLQPEDVATYYCQQSYFTPRGITFGPGTKVDIK
Regarding B3, the “EC50 of IFN-γ secretion by CD4+ T cells in a dendritic cell-T cell mixed lymphocyte reaction” value in assay [2] was 0.078 µg/ml and 0.5 nM.

B4: B60-55 mAb (anti-hPD-L1, human IgG1, kappa) (antibody, V domains shown)
VH: QVQLVQSGAEVKKPASSVKVSCTASGGSFSTYAISWVRQAPGQGLEWMGGIIPIFGTTKYAQRFQGRVTITADESTTTAYMELSSLISDDTALYYCTTSRGFNYGWFDYWGQGTLVTVSS
VL: EIVMTQSPATLSLSPGERATLSCRASQSVGIHLAWYQQKLGQAPRLLIYGASSRATGIPDRFSGSGSGTDFTLTISRLEPEDFAVYYCQQYGSLPRTFGQGTKVEIK
For the molecule B4, in assay [2], the “EC50 of IFN-γ secretion by CD4+ T cells in a dendritic cell-T cell mixed lymphocyte reaction” value is 0.189 µg/ml and 1.2 nM.
